T1: Cyno MUC17 ECD3577-mFc (mFc-tagged cynomolgus monkey MUC17 protein extracellular region fusion protein) (cynomolgus monkey)
T1 construct: also called monkey MUC17-mFc protein; Monkey MUC17-ECD3577-mFc protein
T1 chain: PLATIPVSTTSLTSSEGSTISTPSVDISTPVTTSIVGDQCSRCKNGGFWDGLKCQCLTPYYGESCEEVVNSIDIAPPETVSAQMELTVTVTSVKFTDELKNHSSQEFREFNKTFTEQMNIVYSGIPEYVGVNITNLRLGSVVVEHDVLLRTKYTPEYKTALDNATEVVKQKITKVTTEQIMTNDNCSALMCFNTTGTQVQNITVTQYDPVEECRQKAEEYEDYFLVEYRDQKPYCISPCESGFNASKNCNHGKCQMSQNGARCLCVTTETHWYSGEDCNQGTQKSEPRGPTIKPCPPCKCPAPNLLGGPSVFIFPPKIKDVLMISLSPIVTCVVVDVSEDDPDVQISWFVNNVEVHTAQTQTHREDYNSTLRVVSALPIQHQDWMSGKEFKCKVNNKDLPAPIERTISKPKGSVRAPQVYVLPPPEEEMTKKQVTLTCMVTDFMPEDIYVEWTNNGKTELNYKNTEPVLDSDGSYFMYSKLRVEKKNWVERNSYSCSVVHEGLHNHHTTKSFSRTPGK


What was measured:
[1] = molecular target: T1, Cyno MUC17 ECD3577-mFc (mFc-tagged …); test: ELISA, cynomolgus MUC17-mFc coated on the plate, OD450
[2] = molecular target: T2, Human CD3e-His protein (Sino Biological, CAT #10977-H08H) (human, UniProt P07766 23-126); test: ELISA, human CD3e-His coated on the plate, OD450
T2 construct: Bought reagent; also called human CD3e protein

[3] = molecular target: T3, human MUC17 on endogenous tumor cells (NUGC4, SNU16, ASPC1) (human); test: cell-based or functional assay
[4] = molecular target: T4, human MUC17 fragment on FlpinCHO-huMUC17-D1 cells (human); test: FACS on FlpinCHO-huMUC17-D1 cells, MFI
T4 construct: On cells; also called cells overexpressing human MUC17

[5] = molecular target: T1, Cyno MUC17 ECD3577-mFc (mFc-tagged …); test: SPR (Biacore 8K), antibody captured on Protein A, antigen injected, 25 C, 1:1 model
[6] = molecular target: T5, Human MUC17 ECD4131-his (His-tagged human MUC17 protein extracellular region fusion protein) (human, UniProt Q685J3 4131-4393); test: as above
T5 construct: also called human MUC17-his protein; Human MUC17-ECD(4131-4393)-His protein

[7] = molecular target: T3, human MUC17 on endogenous tumor cells …; test: FACS on NUGC4 cells (endogenous human MUC17), MFI
[8] = molecular target: T5, Human MUC17 ECD4131-his (His-tagged …); test: ELISA, human MUC17-his coated on the plate, OD450
[9] = molecular target: T6, monkey MUC17 on FlpinCHO-cynoMUC17-D1 cells (monkey); test: FACS on FlpinCHO-cynoMUC17-D1 cells, MFI
T6 construct: On cells; also called recombinant cells overexpressing monkey MUC17

[10] = molecular target: T3, human MUC17 on endogenous tumor cells …; test: FACS on AspC-1 cells (endogenous human MUC17), MFI
[11] = molecular target: T3, human MUC17 on endogenous tumor cells …; test: FACS on SNU16 cells (endogenous human MUC17), MFI

T2 sequence (P07766 23-126 limits assumed): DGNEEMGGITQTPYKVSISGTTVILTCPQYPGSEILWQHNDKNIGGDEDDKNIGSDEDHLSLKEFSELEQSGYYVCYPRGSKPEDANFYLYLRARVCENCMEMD

EC50 (read off the curve) [1] [nM]	binding result [2]	EC50 (read off the curve) [4] [nM]	Kd [5] [nM]	koff [5] [s⁻¹]	kon [5] [M⁻¹ s⁻¹]	Kd [6] [nM]	koff [6] [s⁻¹]	kon [6] [M⁻¹ s⁻¹]	EC50 (read off the curve) [7] [nM]	EC50 (read off the curve) [8] [nM]	EC50 (read off the curve) [9] [nM]	EC50 (read off the curve) [10] [nM]	EC50 (read off the curve) [11] [nM]	binding result [8]	Binder	PBMC-mediated in vitro tumor cell killing EC50, ASPC-1 [3] [nM]	PBMC-mediated in vitro tumor cell killing EC50, NUGC4 [3] [nM]	PBMC-mediated in vitro tumor cell killing EC50, SNU16 [3] [nM]
~0.04	binds	~2	4.71	0.00016	33900	0.289	4.86e-05	168000	~1	~0.05	~8	~0.3	~0.3	–	Bis 57 (bispecific antibody, human IgG1, kappa, Three-chain asymmetric MUC17xCD3 bispecific) heavy: EVQLVESGGGVVQPGRSLRLSCAASGFTFTDYYMSWVRQAPGKGLEWVAMSRNKAKGHTIEYSSSVKGRFTISRDNSKNTLYLQMNSLRAEDTAVYYCARDTYESYDGYFDVWGQGTTVTVSSASTKGPSVFPLAPSSKSTSGGTAALGCLVKDYFPEPVTVSWNSGALTSGVHTFPAVLQSSGLYSLSSVVTVPSSSLGTQTYICNVNHKPSNTKVDKKVEPKSCDKTHTCPPCPAPEAAGAPSVFLFPPKPKDTLMISRTPEVTCVVVDVSHEDPEVKFNWYVDGVEVHNAKTKPREEQYNSTYRVVSVLTVLHQDWLNGKEYKCKVSNKALPAPIEKTISKAKGQPREPQVYTLPPSREEMTKNQVSLWCLVKGFYPSDIAVEWESNGQPENNYKTTPPVLDSDGSFFLYSKLTVDKSRWQQGNVFSCSVMHEALHNHYTQKSLSLSPG light: not shown EVQLVESGGGLVQPGRSLRLSCAASGDITRRCMGWFRQAPGKEREGVAGISEDGITIYADSVKGRFTISKDNAKNSLYLQMNSLRAEDTALYSCAASILNRVGCRQLSYEYIYRGQGTMVTVSSGGGDKTHTCPPCPAPEAAGAPSVFLFPPKPKDTLMISRTPEVTCVVVDVSHEDPEVKFNWYVDGVEVHNAKTKPREEQYNSTYRVVSVLTVLHQDWLNGKEYKCKVSNKALPAPIEKTISKAKGQPREPQVYTLPPSREEMTKNQVSLSCAVKGFYPSDIAVEWESNGQPENNYKTTPPVLDSDGSFFLVSKLTVDKSRWQQGNVFSCSVMHEALHNHYTQKSLSLSPG	0.011	0.024	0.017
–	binds	–	–	–	–	–	–	–	–	–	–	–	–	no binding	antiFITCx CD3 negative control (bispecific antibody, human IgG1, kappa, Negative control with the same anti-CD3 arm and an anti-FITC scFv in place of the MUC17 VHH) heavy: EVQLVESGGGVVQPGRSLRLSCAASGFTFTDYYMSWVRQAPGKGLEWVAMSRNKAKGHTIEYSSSVKGRFTISRDNSKNTLYLQMNSLRAEDTAVYYCARDTYESYDGYFDVWGQGTTVTVSSASTKGPSVFPLAPSSKSTSGGTAALGCLVKDYFPEPVTVSWNSGALTSGVHTFPAVLQSSGLYSLSSVVTVPSSSLGTQTYICNVNHKPSNTKVDKKVEPKSCDKTHTCPPCPAPEAAGAPSVFLFPPKPKDTLMISRTPEVTCVVVDVSHEDPEVKFNWYVDGVEVHNAKTKPREEQYNSTYRVVSVLTVLHQDWLNGKEYKCKVSNKALPAPIEKTISKAKGQPREPQVYTLPPSREEMTKNQVSLWCLVKGFYPSDIAVEWESNGQPENNYKTTPPVLDSDGSFFLYSKLTVDKSRWQQGNVFSCSVMHEALHNHYTQKSLSLSPG light: not shown EVKLDETGGGLVQPGRPMKLSCVASGFTFSDYWMNWVRQSPEKGLEWVAQIRNKPYNYETYYSDSVKGRFTISRDDSKSSVYLQMNNLRVEDMGIYYCTGSYYGMDYWGQGTSVTVSSGGGGSGGGGSGGGGSDVVMTQTPLSLPVSLGDQASISCRSSQSLVHSNGNTYLRWYLQKPGQSPKVLIYKVSNRFSGVPDRFSGSGSGTDFTLKISRVEAEDLGVYFCSQSTHVPWTFGGGTKLEIKGGGDKTHTCPPCPAPEAAGAPSVFLFPPKPKDTLMISRTPEVTCVVVDVSHEDPEVKFNWYVDGVEVHNAKTKPREEQYNSTYRVVSVLTVLHQDWLNGKEYKCKVSNKALPAPIEKTISKAKGQPREPQVYTLPPSREEMTKNQVSLSCAVKGFYPSDIAVEWESNGQPENNYKTTPPVLDSDGSFFLVSKLTVDKSRWQQGNVFSCSVMHEALHNHYTQKSLSLSPG	–	–	–
~0.2	binds	~1	25.6	0.000866	33900	0.219	9.74e-05	445000	~0.6	~0.05	–	~0.2	~0.2	–	Bis 59 (bispecific antibody, human IgG1, kappa, Three-chain asymmetric MUC17xCD3 bispecific) heavy: EVQLVESGGGVVQPGRSLRLSCAASGFTFTDYYMSWVRQAPGKGLEWVAMSRNKAKGHTIEYSSSVKGRFTISRDNSKNTLYLQMNSLRAEDTAVYYCARDTYESYDGYFDVWGQGTTVTVSSASTKGPSVFPLAPSSKSTSGGTAALGCLVKDYFPEPVTVSWNSGALTSGVHTFPAVLQSSGLYSLSSVVTVPSSSLGTQTYICNVNHKPSNTKVDKKVEPKSCDKTHTCPPCPAPEAAGAPSVFLFPPKPKDTLMISRTPEVTCVVVDVSHEDPEVKFNWYVDGVEVHNAKTKPREEQYNSTYRVVSVLTVLHQDWLNGKEYKCKVSNKALPAPIEKTISKAKGQPREPQVYTLPPSREEMTKNQVSLWCLVKGFYPSDIAVEWESNGQPENNYKTTPPVLDSDGSFFLYSKLTVDKSRWQQGNVFSCSVMHEALHNHYTQKSLSLSPG light: not shown EVQLVESGGGVVQPGGSLRLSCAASGDTFSRGSWGWFRQAPGKEREAVALISSDGWTFYADSVKGRFTISQDNSKNTLYLQMNSLRAEDTAVYYCAASVLVLRTLNPKAWHHWGQGTMVTVSSGGGDKTHTCPPCPAPEAAGAPSVFLFPPKPKDTLMISRTPEVTCVVVDVSHEDPEVKFNWYVDGVEVHNAKTKPREEQYNSTYRVVSVLTVLHQDWLNGKEYKCKVSNKALPAPIEKTISKAKGQPREPQVYTLPPSREEMTKNQVSLSCAVKGFYPSDIAVEWESNGQPENNYKTTPPVLDSDGSFFLVSKLTVDKSRWQQGNVFSCSVMHEALHNHYTQKSLSLSPG	0.0073	0.0166	0.0126
~0.09	binds	~1	13.4	0.000511	38100	0.136	7.81e-05	572000	~0.2	~0.05	~20	~0.08	~0.08	–	Bis 92 (bispecific antibody, human IgG1, kappa, Three-chain asymmetric MUC17xCD3 bispecific) heavy: EVQLVESGGGVVQPGRSLRLSCAASGFTFTDYYMSWVRQAPGKGLEWVAMSRNKAKGHTIEYSSSVKGRFTISRDNSKNTLYLQMNSLRAEDTAVYYCARDTYESYDGYFDVWGQGTTVTVSSASTKGPSVFPLAPSSKSTSGGTAALGCLVKDYFPEPVTVSWNSGALTSGVHTFPAVLQSSGLYSLSSVVTVPSSSLGTQTYICNVNHKPSNTKVDKKVEPKSCDKTHTCPPCPAPEAAGAPSVFLFPPKPKDTLMISRTPEVTCVVVDVSHEDPEVKFNWYVDGVEVHNAKTKPREEQYNSTYRVVSVLTVLHQDWLNGKEYKCKVSNKALPAPIEKTISKAKGQPREPQVYTLPPSREEMTKNQVSLWCLVKGFYPSDIAVEWESNGQPENNYKTTPPVLDSDGSFFLYSKLTVDKSRWQQGNVFSCSVMHEALHNHYTQKSLSLSPG light: not shown EVQLVESGGGVVQPGGSLRLSCAASGYTSNRYSMAWFRQAPGKEREVVAFIWTDGGRTYYADSVKGRFTISRDNSKNTLYLQMNSLRAEDTAVYYCAASSLLLQTINPRAWPYWGQGTMVTVSSGGGDKTHTCPPCPAPEAAGAPSVFLFPPKPKDTLMISRTPEVTCVVVDVSHEDPEVKFNWYVDGVEVHNAKTKPREEQYNSTYRVVSVLTVLHQDWLNGKEYKCKVSNKALPAPIEKTISKAKGQPREPQVYTLPPSREEMTKNQVSLSCAVKGFYPSDIAVEWESNGQPENNYKTTPPVLDSDGSFFLVSKLTVDKSRWQQGNVFSCSVMHEALHNHYTQKSLSLSPG	0.00739	0.00779	–
